Measured values as given in US7393670B2, “Tyrosyl-tRNA synthetase variants” (Japan Science and Technology Agency, priority 2001, dated 2008).
Positions count from the first letter of the chain named.

B1: VN: E. coli TyrRS double variant: position 37 Valine, position 195 Asparagine (protein, UniProt P0AGJ9 2-424, looked up, variant Y37V Q195N)
Tyrosine--tRNA ligase: ASSNLIKQLQERGLVAQVTDEEALAERLAQGPIALVCGFDPTADSLHLGHLVPLLCLKRFQQAGHKPVALVGGATGLIGDPSFKAAERKLNTEETVQEWVDKIRKQVAPFLDFDCGENSAIAANNYDWFGNMNVLTFLRDIGKHFSVNQMINKEAVKQRLNREDQGISFTEFSYNLLQGYDFACLNKQYGVVLNIGGSDQWGNITSGIDLTRRLHQNQVFGLTVPLITKADGTKFGKTEGGAVWLDPKKTSPYKFYQFWINTADADVYRFLKFFTFMSIEEINALEEEDKNSGKAPRAQYVLAEQVTRLVHGEEGLQAAKRITECLFSGSLSALSEADFEQLAQDGVPMVEMEKGADLMQALVDSELQPSRGQARKTIASNAITINGEKQSDPEYFFKEEDRLFGRFTLLRRGKKNYCLICWK
B2: VS: E. coli TyrRS double variant: position 37 Valine, position 195 Serine (protein, UniProt P0AGJ9 2-424, looked up, variant Y37V Q195S)
Tyrosine--tRNA ligase: B1 Tyrosine--tRNA ligase with N194S
B3: AC: E. coli TyrRS double variant: position 37 Alanine, position 195 Cysteine (protein, UniProt P0AGJ9 2-424, looked up, variant Y37A Q195C)
Tyrosine--tRNA ligase: B1 Tyrosine--tRNA ligase with V36A, N194C
B4: 37V: E. coli TyrRS variant: position 37 Valine, position 195 Glutamine (protein, UniProt P0AGJ9 2-424, looked up, variant Y37V)
Tyrosine--tRNA ligase: B1 Tyrosine--tRNA ligase with N194Q
B5: VA: E. coli TyrRS double variant: position 37 Valine, position 195 Alanine (protein, UniProt P0AGJ9 2-424, looked up, variant Y37V Q195A)
Tyrosine--tRNA ligase: B1 Tyrosine--tRNA ligase with N194A
B6: IA: E. coli TyrRS double variant: position 37 Isoleucine, position 195 Alanine (protein, UniProt P0AGJ9 2-424, looked up, variant Y37I Q195A)
Tyrosine--tRNA ligase: B1 Tyrosine--tRNA ligase with V36I, N194A
B7: AS: E. coli TyrRS double variant: position 37 Alanine, position 195 Serine (protein, UniProt P0AGJ9 2-424, looked up, variant Y37A Q195S)
Tyrosine--tRNA ligase: B1 Tyrosine--tRNA ligase with V36A, N194S
B8: LC: E. coli TyrRS double variant: position 37 Leucine, position 195 Cysteine (protein, UniProt P0AGJ9 2-424, looked up, variant Y37L Q195C)
Tyrosine--tRNA ligase: B1 Tyrosine--tRNA ligase with V36L, N194C

Experiment: Aminoacylation activity by Lloyd's method (release of pyrophosphates)
Assay type: biochemical
Details: 3-iodotyrosine versus tyrosine, from Table 4
Description: In the second method, Lloyd's method (Nucleic Acids Research, 23:2886-2892, 1995) was carried out without alteration.
In the second method, the activity was assayed by Lloyd's method (Nucleic Acids Research, 23:2886-2892, 1995). Each enzyme obtained was incubated with 0.4 ml of the buffer B containing 1 mM ATP (Seikagaku Corporation), 100 μM purified crude tyrosyl-tRNA, 200 μM tyrosine or 3-iodotyrosine at 37° C. for 6 min. The aminoacylation activity was represented as concentrations of released phosphate per min.

| Molecule | relative tyrosine analogue to tyrosine ratio |
| --- | --- |
| B1 | inferior to VC |
| B2 | inferior to VC |
| B3 | inferior to VC |

Same assay, conditions: at 37° C.; 200 μM 3-iodotyrosine

| Molecule | Initial velocity of release of pyrophosphates, 3-iodotyrosine |
| --- | --- |
| B1 | 6.9 nM PPi/min/nM enzyme |
| B2 | 18 nM PPi/min/nM enzyme |
| B3 | 3.1 nM PPi/min/nM enzyme |
| B4 | 73 nM PPi/min/nM enzyme |
| B5 | 6.6 nM PPi/min/nM enzyme |

Same assay, conditions: at 37° C.; 200 μM tyrosine

| Molecule | Initial velocity of release of pyrophosphates, Tyrosine |
| --- | --- |
| B1 | 2.1 nM PPi/min/nM enzyme |
| B2 | 19 nM PPi/min/nM enzyme |
| B3 | 1.0 nM PPi/min/nM enzyme |
| B4 | 140 nM PPi/min/nM enzyme |
| B5 | 3.7 nM PPi/min/nM enzyme |

Experiment: Aminoacylation reaction, simplified Lloyd's method, inorganic phosphate detected with Biomol green
Assay type: biochemical
Set-up: key: ***: the reaction could be detected strongly at 25 nM; **: strongly at 250 nM; *: weakly at 250 nM; the activity is high in the order of *** > ** > * > —
Details: Table 3; 3-iodotyrosine 1 mM; 37° C. for 4 min
Description: (§1) In the first method, Lloyd's method (Nucleic Acids Research, 23:2886-2892, 1995) where inorganic phosphate produced by pyrophosphatase-drived hydrolysis of pyrophosphate which was one of the reaction products of the aminoacylation reactions was quantified was simplified, and the inorganic phosphate was detected using Biomol green (Funakoshi) to carry out the measurement of the aminoacylation reaction.
(§2) Amino acid concentrations were 200 μM and 1 mM for tyrosine and 3-iodotyrosine, respectively.
(§3) The method where the aminoacylation reaction is measured by quantifying inorganic phosphate produced by pyrophosphatase-drived hydrolysis of pyrophosphate which is one of reaction products of the aminoacylation has been described by Lloyd et al. (Nucleic Acids Research, 23:2886-2892, 1995). In one method of the invention, this method was simplified and the aminoacylation reaction was measured by the detection of inorganic phosphate using Biomol green (Funakoshi). Each enzyme obtained was incubated with 0.05 ml of the buffer B containing 1 mM ATP (Seikagaku Corporation), 30 μM purified crude tyrosyl-tRNA, and 100 μM tyrosine or 0.5 mM 3-iodotyrosine at 37° C. for one hour. To stop the reaction, 0.1 ml of Bio mol green was added. Absorbance of its supernatant was measured at 630 nm.

| Molecule | Aminoacylation activity, 3-iodotyrosine |
| --- | --- |
| B1 | ** |
| B2 | ** |
| B3 | ** |
| B4 | *** |
| B6 | * |
| B7 | * |
| B5 | ** |
| B8 | * |

Experiment: as above
Assay type: biochemical
Set-up: key: ***: the reaction could be detected strongly at 25 nM; **: strongly at 250 nM; *: weakly at 250 nM; the activity is high in the order of *** > ** > * > —
Details: Table 3; tyrosine 200 μM; 37° C. for 4 min
Description: as §1, §2
as §3, with “Each enzyme obtained was incubated with 0.05 ml of the buffer B containing 1 mM ATP (Seikagaku Corporation), 30 μM purified crude tyrosyl-tRNA, and 100 μM tyrosine or 0.5 mM 3-iodotyrosine at 37° C. for one hour.” left out

| Molecule | Aminoacylation activity, Tyrosine |
| --- | --- |
| B2 | ** |
| B3 | * |
| B4 | *** |
| B6 | * |
| B7 | * |
| B5 | * |
| B8 | * |

Experiment: as above
Assay type: biochemical
Set-up: key: ***: the aminoacylation reaction was detected by a microplate reader in the reaction at enzyme concentrations of 50 nM; **: 500 nM; *: 5 μM; the activity is high in the order of *** > ** > * > —
Details: Table 2; tyrosine 200 μM; 37° C. for 4 min
Description: as §1, §2
as §3, with “Each enzyme obtained was incubated with 0.05 ml of the buffer B containing 1 mM ATP (Seikagaku Corporation), 30 μM purified crude tyrosyl-tRNA, and 100 μM tyrosine or 0.5 mM 3-iodotyrosine at 37° C. for one hour.” left out

| Molecule | Aminoacylation activity, Tyrosine |
| --- | --- |
| B4 | *** |

Same assay, conditions: Table 3; tyrosine 200 μM; 37° C. for 4 min

| Molecule | Aminoacylation activity, Tyrosine |
| --- | --- |
| B1 | — |

Experiment: as above
Assay type: biochemical
Set-up: key: ***: the aminoacylation reaction was detected by a microplate reader in the reaction at enzyme concentrations of 50 nM; **: 500 nM; *: 5 μM; the activity is high in the order of *** > ** > * > —
Details: Table 2; 3-iodotyrosine 1 mM; 37° C. for 4 min
Description: as §1, §2, §3

| Molecule | Aminoacylation activity, 3-iodotyrosine |
| --- | --- |
| B4 | *** |
